T1: Phosphoglycerate mutase 1 (Gpm1), recombinant (C. albicans), P82612
T1 chain: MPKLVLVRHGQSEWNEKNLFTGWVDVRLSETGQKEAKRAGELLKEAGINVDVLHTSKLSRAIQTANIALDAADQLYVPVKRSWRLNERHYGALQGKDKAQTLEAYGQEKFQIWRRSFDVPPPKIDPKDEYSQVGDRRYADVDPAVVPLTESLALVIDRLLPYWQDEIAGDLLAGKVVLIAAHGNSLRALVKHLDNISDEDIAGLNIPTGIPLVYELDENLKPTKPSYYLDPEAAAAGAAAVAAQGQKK

T2: enolase (Eno1) (C. albicans (endogenous in strain ATCC 10231)), P30575
T2 chain: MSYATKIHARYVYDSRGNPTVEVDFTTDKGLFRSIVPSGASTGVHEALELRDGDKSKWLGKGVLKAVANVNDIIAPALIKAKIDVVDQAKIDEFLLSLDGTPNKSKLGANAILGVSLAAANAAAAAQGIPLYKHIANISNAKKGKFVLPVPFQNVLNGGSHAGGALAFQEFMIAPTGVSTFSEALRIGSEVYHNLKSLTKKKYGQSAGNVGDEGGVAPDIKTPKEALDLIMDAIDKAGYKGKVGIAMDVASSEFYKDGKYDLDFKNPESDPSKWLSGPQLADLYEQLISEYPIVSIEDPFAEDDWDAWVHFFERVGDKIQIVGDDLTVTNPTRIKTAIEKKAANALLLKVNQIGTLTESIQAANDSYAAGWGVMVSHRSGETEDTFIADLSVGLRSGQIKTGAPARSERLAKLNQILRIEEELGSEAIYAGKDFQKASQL

B1: lactotransferrin (LF), P02788 20-710 (natural protein)
chain: GRRRSVQWCAVSQPEATKCFQWQRNMRKVRGPPVSCIKRDSPIQCIQAIAENRADAVTLDGGFIYEAGLAPYKLRPVAAEVYGTERQPRTHYYAVAVVKKGGSFQLNELQGLKSCHTGLRRTAGWNVPIGTLRPFLNWTGPPEPIEAAVARFFSASCVPGADKGQFPNLCRLCAGTGENKCAFSSQEPYFSYSGAFKCLRDGAGDVAFIRESTVFEDLSDEAERDEYELLCPDNTRKPVDKFKDCHLARVPSHAVVARSVNGKEDAIWNLLRQAQEKFGKDKSPKFQLFGSPSGQKDLLFKDSAIGFSRVPPRIDSGLYLGSGYFTAIQNLRKSEEEVAARRARVVWCAVGEQELRKCNQWSGLSEGSVTCSSASTTEDCIALVLKGEADAMSLDGGYVYTAGKCGLVPVLAENYKSQQSSDPDPNCVDRPVEGYLAVAVVRRSDTSLTWNSVKGKKSCHTAVDRTAGWNIPMGLLFNQTGSCKFDEYFSQSCAPGSDPRSNLCALCIGDEQGENKCVPNSNERYYGYTGAFRCLAENAGDVAFVKDVTVLQNTDGNNNEAWAKDLKLADFALLCLDGKRKPVTEARSCHLAMAPNHAVVSRMDKVERLKQVLLHQQAKFGRNGSDCPDKFCLFQSETKNLLFNDNTECLARLHGKTTYEKYLGPQYVAGITNLKKCSTSPLLEACEFLRK
modifications: here or on the partner: NHS-fluorescein label in flow cytometry; sulfo-SBED crosslinker in the cross-linking experiment
B2: human neutrophil elastase (HNE), P08246 30-267 (enzyme)
chain: IVGGRRARPHAWPFMVSLQLRGGHFCGATLIAPNFVMSAAHCVANVNVRAVRVVLGAHNLSRREPTRQVFAVQRIFENGYDPVNLLNDIVILQLNGSATINANVQVAQLPAQGRRLGNGVQCLAMGWGLLGRNRGIASVLQELNVTVVTSLCRRSNVCTLVRGRQAGVCFGDSGSPLVCNGLIHGIASFVRGGCASGLYPDAFAPVAQFVNWIDSIIQRSEDNPCPHPRDPDPASRTH
modifications: here or on the partner: sulfo-SBED crosslinker in the cross-linking experiment; in flow cytometry preincubated or not with 10 µM N-(Methoxysuccinyl)-Ala-Ala-Pro-Val-chloromethyl ketone

Legend:
[1] = biological target: T1, Phosphoglycerate mutase 1 (Gpm1), …; assay: SPR; conditions: remark: other sources report otherwise
[2] = biological target: T2, enolase (Eno1) (C. albicans (endogenous …)); assay: SPR; conditions: remark: other sources report otherwise

| Binder | Kd [1] [nM] | Kd [2] [nM] |
| --- | --- | --- |
| B1 | 21.4 | 72.2 |
| B2 |  | 36.1 |

Reference: paper PMC8534323
